The PETadex activity labels (doi:10.1002/cbic.201800097)
Where a chain is given by its changes, count along the chain named.

Experiments:
PET [1] = experiment: Proxy for plastic degradation [Released monomer concentration (HPLC/LC-MS) (TPA)]
PET [2] = experiment: Proxy for plastic degradation [Released monomer concentration (HPLC/LC-MS) (MHET)]
BHET = experiment: Proxy for plastic degradation [Released monomer concentration (HPLC/LC-MS) (MHET+TPA)]
[3] = pH 10.5, part of the chain shown

B1: unnamed (protein)
chain: MNFPRASRLMQAAVLGGLMAVSAAATAQTNPYARGPNPTAASLEASAGPFTVRSFTVSRPSGYGAGTVYYPTNAGGTVGAIAIVPGYTARQSSIKWWGPRLASHGFVVITIDTNSTLDQPSSRSSQQMAALRQVASLNGTSSSPIYGKVDTARMGVMGWSMGGGGSLISAANNPSLKAAAPQAPWDSSTNFSSVTVPTLIFACENDSIAPVNSSALPIYDSMSRNAKQFLEINGGSHSCANSGNSNQALIGKKGVAWMKRFMDNDTRYSTFACENPNSTRVSDFRTANCS
Proxy for plastic degradation (PET [1]; pH 8, part of the chain shown): 0 nM
Proxy for plastic degradation (PET [1]; pH 10, part of the chain shown): 0 nM
Proxy for plastic degradation (PET [1]; [3]): 0 nM
Proxy for plastic degradation (PET [2]; 25 °C, part of the chain shown): 1300 nM
Proxy for plastic degradation (PET [2]; 30 °C, part of the chain shown): 5300 nM
Proxy for plastic degradation (PET [2]; 35 °C, part of the chain shown): 2200 nM
Proxy for plastic degradation (PET [2]; 40 °C, part of the chain shown): 0 nM
Proxy for plastic degradation (PET [2]; pH 9, 25 °C, part of the chain shown): 10.5 nM
Proxy for plastic degradation (PET [2]; pH 9, 30 °C, part of the chain shown): 12.9 nM
Proxy for plastic degradation (PET [2]; pH 9, 35 °C, part of the chain shown): 8 nM
Proxy for plastic degradation (PET [2]; pH 9, 40 °C, part of the chain shown): 5.5 nM
Proxy for plastic degradation (PET [2]; pH 9, part of the chain shown): 12700 nM
Proxy for plastic degradation (PET [2]; [3]): 0 nM
Proxy for plastic degradation (BHET; pH 5, part of the chain shown): 0.58 µM
Proxy for plastic degradation (BHET; pH 5.5, part of the chain shown): 0.9 µM
Proxy for plastic degradation (BHET; pH 6, part of the chain shown): 1.51 µM
Proxy for plastic degradation (BHET; pH 6.5, part of the chain shown): 1.72 µM
Proxy for plastic degradation (BHET; pH 7, part of the chain shown): 1.72 µM
Proxy for plastic degradation (BHET; pH 7.5, 25 °C, part of the chain shown): 0.95 µM
Proxy for plastic degradation (BHET; pH 7.5, 30 °C, part of the chain shown): 1.75 µM
Proxy for plastic degradation (BHET; pH 7.5, 35 °C, part of the chain shown): 1.04 µM
Proxy for plastic degradation (BHET; pH 7.5, 40 °C, part of the chain shown): 0.65 µM
Proxy for plastic degradation (BHET; pH 7.5, 45 °C, part of the chain shown): 0.3 µM
Proxy for plastic degradation (BHET; pH 7.5, 50 °C, part of the chain shown): 0.17 µM
Proxy for plastic degradation (BHET; pH 7.5, 55 °C, part of the chain shown): 0.14 µM
Proxy for plastic degradation (BHET; pH 7.5, 60 °C, part of the chain shown): 0.16 µM
Proxy for plastic degradation (BHET; pH 8, part of the chain shown): 1.65 µM
Proxy for plastic degradation (BHET; pH 8.5, part of the chain shown): 1.47 µM
Proxy for plastic degradation (BHET; pH 9, part of the chain shown): 1.1 µM
Proxy for plastic degradation (BHET; pH 9.5, part of the chain shown): 0.47 µM

B2: unnamed (protein)
chain: NPYARGPNPTAASLEASAGPFTVRSFTVSRPSGYGAGTVYYPTNAGGTVGAIAIVPGYTARQSSIKWWGPRLASHGFVVITIDTNSTLDQPSSRSSQQMAALRQVASLNGTSSSPIYGKVDTARMGVMGWSMGGGGSLISAANNPSLKAAAPQAPWDSSTNFSSVTVPTLIFACENDSIAPVNSSALPIYDSMSRNAKQFLEINGGSHSCAASGNSNQALIGKKGVAWMKRFMDNDTRYSTFACENPNSTRVSDFRTANCS
Proxy for plastic degradation (PET [1]; pH 9): 0 nM
Proxy for plastic degradation (PET [2]; pH 9): 1.5 nM

B3: unnamed (protein)
chain: B2 chain with W156A, A212N
Proxy for plastic degradation (PET [1]; pH 9): 2 nM
Proxy for plastic degradation (PET [2]; pH 9): 1.5 nM

B4: unnamed (protein)
chain: B2 chain with A180I, A212N
Proxy for plastic degradation (PET [1]; pH 9): 11 nM
Proxy for plastic degradation (PET [2]; pH 9): 13 nM

B5: unnamed (protein)
chain: B2 chain with W68L, A212N
Proxy for plastic degradation (PET [1]; pH 9): 0 nM
Proxy for plastic degradation (PET [2]; pH 9): 0 nM
Proxy for plastic degradation (BHET; pH 7.5): 0.18 µM

B6: unnamed (protein)
chain: B2 chain with Q90A, A212N
Proxy for plastic degradation (PET [1]; pH 9): 6 nM
Proxy for plastic degradation (BHET; pH 7.5): 0.94 µM

B7: unnamed (protein)
chain: B2 chain with C210A, A212N
Proxy for plastic degradation (PET [1]; pH 9): 0 nM
Proxy for plastic degradation (PET [2]; pH 9): 0 nM
Proxy for plastic degradation (BHET; pH 7.5): 0.22 µM

B8: unnamed (protein)
chain: B2 chain with Y58A, A212N
Proxy for plastic degradation (PET [1]; pH 9): 21 nM
Proxy for plastic degradation (BHET; pH 7.5): 1.09 µM

B9: unnamed (protein)
chain: B2 chain with S131A, D177A, H208A, A212N
Proxy for plastic degradation (PET [1]; pH 9): 0 nM
Proxy for plastic degradation (PET [2]; pH 9): 0 nM

B10: unnamed (protein)
chain: B2 chain with Y58F, A212N
Proxy for plastic degradation (PET [1]; pH 9): 0 nM
Proxy for plastic degradation (PET [2]; pH 9): 0 nM
Proxy for plastic degradation (BHET; pH 7.5): 0.54 µM

B11: unnamed (protein)
chain: B1 chain with N212A
Proxy for plastic degradation (PET [1]; pH 9): 0 nM
Proxy for plastic degradation (PET [2]; pH 9): 2 nM
Proxy for plastic degradation (BHET; pH 7.5): 0.42 µM

B12: unnamed (protein)
chain: B1 chain with A180I
Proxy for plastic degradation (PET [1]; pH 9): 10.5 nM
Proxy for plastic degradation (PET [2]; pH 9): 13.4 nM
Proxy for plastic degradation (BHET; pH 7.5): 0.31 µM

B13: unnamed (protein)
chain: B2 chain with C174A, C210A, A212N
Proxy for plastic degradation (PET [1]; pH 9, part of the chain shown): 0 nM
Proxy for plastic degradation (PET [2]; pH 9, part of the chain shown): 0.5 nM
